Article PMC5773207
Several values for one entry are separate records, joined by “and”; a condition that tells them apart may be missing. Equal entries are not always repeated.

Molecular target: Nogo-B receptor construct NgBR(79–293) (human) (UniProt Q96E22)
Assay: SEC; size exclusion (Superdex 200 10/300 GL) in-line with synchrotron SAXS; 20 mg/mL NgBR(79-293), 20 mM HEPES pH 7.5, 150 mM NaCl, 5% glycerol, 1 mM TCEP, 25°C

stoichiometry N: 2 and 4
Substance: Nogo-B receptor construct NgBR(79–293) (from UniProt Q96E22 79-293) (domain or fragment)
